Columns and labels:
Assay in all cases: ITC
MBP–Nab2p NLS R235A = target: T1, MBP–Nab2p NLS R235A (S. cerevisiae, UniProt P32505 201-251, R235A)
T1 sequence: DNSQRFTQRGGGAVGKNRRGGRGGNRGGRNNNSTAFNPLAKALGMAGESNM

MBP–Nab2p NLS R235H = target: T2, MBP–Nab2p NLS R235H (S. cerevisiae, UniProt P32505 201-251, R235 to histidine)
T2 sequence: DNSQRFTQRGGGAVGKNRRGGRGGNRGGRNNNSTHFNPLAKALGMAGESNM

MBP–Nab2p NLS F236A = target: T3, MBP–Nab2p NLS F236A (S. cerevisiae, UniProt P32505 201-251, F236A)
T3 sequence: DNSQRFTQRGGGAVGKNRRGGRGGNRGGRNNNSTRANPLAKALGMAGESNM

MBP–Nab2p NLS F236L = target: T4, MBP–Nab2p NLS F236L (S. cerevisiae, UniProt P32505 201-251, F236L)
T4 sequence: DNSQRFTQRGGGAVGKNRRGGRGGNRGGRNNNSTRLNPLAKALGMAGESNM

[1] = target: T5, MBP–Nab2p NLS, all of the arginines mutated to lysines (S. cerevisiae, UniProt P32505 201-251, R218K | R219K | R222K | R226K | R229K)
T5 sequence: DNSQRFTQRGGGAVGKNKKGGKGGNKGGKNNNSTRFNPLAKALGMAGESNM

B1: Kap104p (receptor)
chain: MASTWKPAEDYVLQLATLLQNCMSPNPEIRNNAMEAMENFQLQPEFLNYLCYILIEGESDDVLKQHYSLQDLQNNRATAGMLLKNSMLGGNNLIKSNSHDLGYVKSNIIHGLYNSNNNLVSNVTGIVITTLFSTYYRQHRDDPTGLQMLYQLLELTSNGNEPSIKALSKIMEDSAQFFQLEWSGNTKPMEALLDSFFRFISNPNFSPVIRSESVKCINTVIPLQTQSFIVRLDKFLEIIFQLAQNDENDLVRAQICISFSFLLEFRPDKLVSHLDGIVQFMLHLITTVNEEKVAIEACEFLHAFATSPNIPEHILQPYVKDIVPILLSKMVYNEESIVLLEASNDDDAFLEDKDEDIKPIAPRIVKKKEAGNGEDADDNEDDDDDDDDEDGDVDTQWNLRKCSAATLDVMTNILPHQVMDIAFPFLREHLGSDRWFIREATILALGAMAEGGMKYFNDGLPALIPFLVEQLNDKWAPVRKMTCWTLSRFSPWILQDHTEFLIPVLEPIINTLMDKKKDVQEAAISSVAVFIENADSELVETLFYSQLLTSFDKCLKYYKKKNLIILYDAIGRFAEKCALDETAMQIILPPLIEKWALLSDSDKELWPLLECLSCVASSLGERFMPMAPEVYNRAFRILCHCVELEAKSHQDPTIVVPEKDFIITSLDLIDGLVQGLGAHSQDLLFPQGTKDLTILKIMLECLQDPVHEVRQSCFALLGDIVYFFNSELVIGNLEDFLKLIGTEIMHNDDSDGTPAVINAIWALGLISERIDLNTYIIDMSRIILDLFTTNTQIVDSSVMENLSVTIGKMGLTHPEVFSSGAFANDSNWNKWCLSVNALDDVEEKSSAYMGFLKIINLTSTEVTMSNDTIHKIVTGLSSNVEANVFAQEIYTFLMNHSAQISAINFTPDEISFLQQFTS
Q: With B1 as the binder, how does the Kd (MBP–Nab2p NLS R235A) read?
A: 203 nM

Q: And the Kd (MBP–Nab2p NLS R235H)?
A: 63 nM

Q: And the Kd (MBP–Nab2p NLS F236A)?
A: 296 nM

Q: What about the Kd (MBP–Nab2p NLS F236L) of the same binder?
A: 66 nM

Q: What about the Kd [1] of the same binder?
A: 21 nM

From PMC2408616, “Modular Organization and Combinatorial Energetics of Proline–Tyrosine Nuclear Localization Signals” (PLoS Biology, 2008)
